Data published in article PMC6203356.

Molecular target: CENP-A (endogenous, soluble pre-assembly fraction) (human (endogenous in SW480)) (UniProt P49450)
Test: co-IP; CENP-A IP (ACA serum) or mock IP from the soluble fraction (PBS, 0.5% NP-40) of SW480 cells treated 72 hours with control or HJURP siRNA; Western blot for the chaperones

UniProt P49450, sequence (P49450 whole entry): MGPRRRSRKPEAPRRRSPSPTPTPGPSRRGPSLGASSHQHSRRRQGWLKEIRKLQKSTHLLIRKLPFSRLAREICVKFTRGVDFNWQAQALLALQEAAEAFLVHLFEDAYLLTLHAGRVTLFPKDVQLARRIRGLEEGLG

- fold increase in the amount bound to CENP-A after HJURP knockdown against control siRNA: 2.4 fold
Substance: HIRA (endogenous) (from UniProt P54198 1-1017) (natural protein)
